Literature values, collected in US20190382462A1, “METHODS AND COMPOSITIONS FOR TREATING HPA HYPERACTIVITY” (priority 2017, published 2019).
Read-outs that look alike come from different tables or passages of the source. Where no end group is shown, it is not given here.

What was measured:
[1] = human serum
CRF-BP = target: T1, CRF-BP (Homo sapiens, UniProt P24387)
T1 sequence (P24387 25-322): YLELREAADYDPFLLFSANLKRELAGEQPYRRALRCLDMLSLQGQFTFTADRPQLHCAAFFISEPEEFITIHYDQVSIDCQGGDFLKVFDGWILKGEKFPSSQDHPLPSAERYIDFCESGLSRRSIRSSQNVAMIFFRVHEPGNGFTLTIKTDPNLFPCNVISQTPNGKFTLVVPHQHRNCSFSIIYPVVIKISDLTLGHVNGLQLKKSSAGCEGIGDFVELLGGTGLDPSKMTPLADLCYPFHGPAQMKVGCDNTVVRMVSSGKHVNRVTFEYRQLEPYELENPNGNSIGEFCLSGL

CRF1 = target: T2, CRF1 (Homo sapiens, UniProt P34998)
T2 sequence (P34998 24-415): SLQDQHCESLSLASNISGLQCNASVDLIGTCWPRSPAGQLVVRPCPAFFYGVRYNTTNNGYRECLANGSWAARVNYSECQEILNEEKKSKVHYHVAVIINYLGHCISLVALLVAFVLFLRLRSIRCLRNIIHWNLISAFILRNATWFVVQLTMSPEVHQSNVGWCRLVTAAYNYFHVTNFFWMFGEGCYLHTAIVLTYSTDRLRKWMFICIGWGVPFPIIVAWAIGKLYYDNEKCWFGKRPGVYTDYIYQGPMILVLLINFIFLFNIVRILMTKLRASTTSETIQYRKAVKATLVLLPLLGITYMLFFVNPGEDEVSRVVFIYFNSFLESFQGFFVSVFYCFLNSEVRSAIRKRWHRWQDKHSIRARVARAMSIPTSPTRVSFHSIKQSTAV

etanercept
half-life (b287, b290): roughly 70 hours

Human transferrin: highly abundant serum glycoprotein that carries iron
half-life [1]: 170 to 288 h

darbepoetin alfa
serum half-life compared to epoetin alpha and epoetin beta (in vivo): 3 fold

aglycosylated form of human transferrin: aglycosylated form, about 2-8% of the total transferrin pool
half-life [1]: 336 to 408 h

bevacizumab: therapeutic antibody
circulating serum concentration reported for therapeutic antibody (in vivo): 10 to 30 µg/mL

Ucn2: CRF-related peptide, selective CRF2 agonist (IVLSLDVPIGLLQILLEQARARAAREQATTNARILARVGHC; ends and bridges not checked; UniProt Q96RP3 72-112, looked up)
affinity for CRF-BP (CRF-BP): neither Ucn2 nor Ucn3 exhibits appreciable affinity

Factor IX: other formulations of Factor IX alone
half-life (b170, Alprolix: terminal half-life in clinical trials): ~18 h

Ucn3: CRF-related peptide, selective CRF2 agonist (FTLSLDVPTNIMNLLFNIAKAKNLRAQAAANAHLMAQI; ends and bridges not checked; UniProt Q969E3 120-157, looked up)
affinity for CRF-BP (CRF-BP): neither Ucn2 nor Ucn3 exhibits appreciable affinity

urocortin 1 (DNPSLSIDLTFHLLRTLLELARTQSQRERAEQNRIIFDSV; ends and bridges not checked; UniProt P55089 83-122, looked up) [Ucn1]
binding affinity for CRF1 relative to CRF (CRF1): threefold higher
